Results published in patent publication US20140087995A1 (published 2014).
Numbered stars: 1 amine (or outer) side, 2 acyl side, 3 side chain; on linkers, the order of the positions; unused ones are H or OH. Bridge positions count the residues as written; N and C are the ends. Side chains are listed from the residue outwards. Ends that are not written are not given here. * marks the point of attachment. C20 diacid = O=C(O)CCCCCCCCCCCCCCCCCCC(=O)*; γGlu = O=C(O)[C@H](CCC(=O)[*:2])N[*:1]; AEEA = NCCOCCOCC(=O)O

T1: rat amylin receptor (rat calcitonin receptor + rat RAMP 3) (rat, UniProt P32214 25-516; Q9JJ73 23-147)
T1 construct: whole, on cells; Cell membranes of transiently transfected BHK tk'ts 13 cells (Assay VI); also called rAmylin-R; rat amylin 3(a) receptor
T1 sequence (looked up) 1: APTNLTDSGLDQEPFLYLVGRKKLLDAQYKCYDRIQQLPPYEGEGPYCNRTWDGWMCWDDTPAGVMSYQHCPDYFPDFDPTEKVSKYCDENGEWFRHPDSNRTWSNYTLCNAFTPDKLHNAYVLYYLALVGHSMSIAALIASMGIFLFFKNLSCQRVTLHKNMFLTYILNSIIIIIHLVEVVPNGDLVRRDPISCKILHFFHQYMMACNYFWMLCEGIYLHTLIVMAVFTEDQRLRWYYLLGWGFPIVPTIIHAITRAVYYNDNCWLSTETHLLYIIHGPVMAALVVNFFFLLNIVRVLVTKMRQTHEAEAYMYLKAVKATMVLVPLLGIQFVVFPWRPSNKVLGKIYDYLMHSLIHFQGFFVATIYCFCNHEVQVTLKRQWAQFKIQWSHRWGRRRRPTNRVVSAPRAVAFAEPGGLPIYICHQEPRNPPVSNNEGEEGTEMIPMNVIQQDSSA
T1 sequence (looked up) 2: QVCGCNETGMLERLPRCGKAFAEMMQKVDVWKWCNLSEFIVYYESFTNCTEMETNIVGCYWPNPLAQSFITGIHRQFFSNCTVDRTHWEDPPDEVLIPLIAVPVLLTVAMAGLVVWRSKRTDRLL

T2: rat calcitonin receptor (rat, UniProt P32214 25-516)
T2 construct: whole, on cells; Cell membranes of transiently transfected BHK tk'ts 13 cells (Assay VIII); also called rCTR; rCT
T2 sequence (looked up): T1 sequence (looked up) 1

B1: N^ε1-[2-[2-[2-[[(4S)-4-carboxy-4-(19-carboxynonadecanoylamino)butanoyl]amino]ethoxy]ethoxy]acetyl]-[His14,Arg17,Pro21,Pro27,Pro31]-h-amylin (peptide)
peptide: K([AEEA-γGlu-C20 diacid])CNTATCATQRLAHFLRHSSPNFGAIPSSTPVGSNTY-NH2
modifications: disulfide 2-7; N-terminus assumed
SMILES: CC[C@H](C)[C@H](NC(=O)[C@H](C)NC(=O)CNC(=O)[C@H](Cc1ccccc1)NC(=O)[C@H](CC(N)=O)NC(=O)[C@@H]1CCCN1C(=O)[C@H](CO)NC(=O)[C@H](CO)NC(=O)[C@H](Cc1c[nH]cn1)NC(=O)[C@H](CCCNC(=N)N)NC(=O)[C@H](CC(C)C)NC(=O)[C@H](Cc1ccccc1)NC(=O)[C@H](Cc1c[nH]cn1)NC(=O)[C@H](C)NC(=O)[C@H](CC(C)C)NC(=O)[C@H](CCCNC(=N)N)NC(=O)[C@H](CCC(N)=O)NC(=O)[C@@H](NC(=O)[C@H](C)NC(=O)[C@@H]1CSSC[C@H](NC(=O)[C@@H](N)CCCCNC(=O)COCCOCCNC(=O)CC[C@H](NC(=O)CCCCCCCCCCCCCCCCCCC(=O)O)C(=O)O)C(=O)N[C@@H](CC(N)=O)C(=O)N[C@@H]([C@@H](C)O)C(=O)N[C@@H](C)C(=O)N[C@@H]([C@@H](C)O)C(=O)N1)[C@@H](C)O)C(=O)N1CCC[C@H]1C(=O)N[C@@H](CO)C(=O)N[C@@H](CO)C(=O)N[C@H](C(=O)N1CCC[C@H]1C(=O)N[C@H](C(=O)NCC(=O)N[C@@H](CO)C(=O)N[C@@H](CC(N)=O)C(=O)N[C@H](C(=O)N[C@@H](Cc1ccc(O)cc1)C(N)=O)[C@@H](C)O)C(C)C)[C@@H](C)O
notes: Acylated analogue of human amylin; also called compound 61
B2: N^ε1-[(4S)-4-carboxy-4-(19-carboxynonadecanoylamino)butanoyl]-[Glu14,Arg17,Pro21,Pro27,Arg35]-h-amylin (peptide)
peptide: K([γGlu-C20 diacid])CNTATCATQRLAEFLRHSSPNFGAIPSSTNVGSRTY-NH2
modifications: disulfide 2-7; N-terminus assumed
SMILES: CC[C@H](C)[C@H](NC(=O)[C@H](C)NC(=O)CNC(=O)[C@H](Cc1ccccc1)NC(=O)[C@H](CC(N)=O)NC(=O)[C@@H]1CCCN1C(=O)[C@H](CO)NC(=O)[C@H](CO)NC(=O)[C@H](Cc1c[nH]cn1)NC(=O)[C@H](CCCNC(=N)N)NC(=O)[C@H](CC(C)C)NC(=O)[C@H](Cc1ccccc1)NC(=O)[C@H](CCC(=O)O)NC(=O)[C@H](C)NC(=O)[C@H](CC(C)C)NC(=O)[C@H](CCCNC(=N)N)NC(=O)[C@H](CCC(N)=O)NC(=O)[C@@H](NC(=O)[C@H](C)NC(=O)[C@@H]1CSSC[C@H](NC(=O)[C@@H](N)CCCCNC(=O)CC[C@H](NC(=O)CCCCCCCCCCCCCCCCCCC(=O)O)C(=O)O)C(=O)N[C@@H](CC(N)=O)C(=O)N[C@@H]([C@@H](C)O)C(=O)N[C@@H](C)C(=O)N[C@@H]([C@@H](C)O)C(=O)N1)[C@@H](C)O)C(=O)N1CCC[C@H]1C(=O)N[C@@H](CO)C(=O)N[C@@H](CO)C(=O)N[C@H](C(=O)N[C@@H](CC(N)=O)C(=O)N[C@H](C(=O)NCC(=O)N[C@@H](CO)C(=O)N[C@@H](CCCNC(=N)N)C(=O)N[C@H](C(=O)N[C@@H](Cc1ccc(O)cc1)C(N)=O)[C@@H](C)O)C(C)C)[C@@H](C)O
notes: Acylated analogue of human amylin; also called compound 51
B3: N^ε1-[(4S)-4-carboxy-4-(19-carboxynonadecanoylamino)butanoyl]-[His14,Arg17,Pro21,Pro27,Pro31]-h-amylin (peptide)
peptide: K([γGlu-C20 diacid])CNTATCATQRLAHFLRHSSPNFGAIPSSTPVGSNTY-NH2
modifications: disulfide 2-7; N-terminus assumed
SMILES: CC[C@H](C)[C@H](NC(=O)[C@H](C)NC(=O)CNC(=O)[C@H](Cc1ccccc1)NC(=O)[C@H](CC(N)=O)NC(=O)[C@@H]1CCCN1C(=O)[C@H](CO)NC(=O)[C@H](CO)NC(=O)[C@H](Cc1c[nH]cn1)NC(=O)[C@H](CCCNC(=N)N)NC(=O)[C@H](CC(C)C)NC(=O)[C@H](Cc1ccccc1)NC(=O)[C@H](Cc1c[nH]cn1)NC(=O)[C@H](C)NC(=O)[C@H](CC(C)C)NC(=O)[C@H](CCCNC(=N)N)NC(=O)[C@H](CCC(N)=O)NC(=O)[C@@H](NC(=O)[C@H](C)NC(=O)[C@@H]1CSSC[C@H](NC(=O)[C@@H](N)CCCCNC(=O)CC[C@H](NC(=O)CCCCCCCCCCCCCCCCCCC(=O)O)C(=O)O)C(=O)N[C@@H](CC(N)=O)C(=O)N[C@@H]([C@@H](C)O)C(=O)N[C@@H](C)C(=O)N[C@@H]([C@@H](C)O)C(=O)N1)[C@@H](C)O)C(=O)N1CCC[C@H]1C(=O)N[C@@H](CO)C(=O)N[C@@H](CO)C(=O)N[C@H](C(=O)N1CCC[C@H]1C(=O)N[C@H](C(=O)NCC(=O)N[C@@H](CO)C(=O)N[C@@H](CC(N)=O)C(=O)N[C@H](C(=O)N[C@@H](Cc1ccc(O)cc1)C(N)=O)[C@@H](C)O)C(C)C)[C@@H](C)O
notes: Acylated analogue of human amylin; also called compound 62
B4: N^ε1-[(4S)-4-carboxy-4-(19-carboxynonadecanoylamino)butanoyl]-[Arg17,Pro21,Pro27,His35]-h-amylin (peptide)
peptide: K([γGlu-C20 diacid])CNTATCATQRLANFLRHSSPNFGAIPSSTNVGSHTY-NH2
modifications: disulfide 2-7; N-terminus assumed
SMILES: CC[C@H](C)[C@H](NC(=O)[C@H](C)NC(=O)CNC(=O)[C@H](Cc1ccccc1)NC(=O)[C@H](CC(N)=O)NC(=O)[C@@H]1CCCN1C(=O)[C@H](CO)NC(=O)[C@H](CO)NC(=O)[C@H](Cc1c[nH]cn1)NC(=O)[C@H](CCCNC(=N)N)NC(=O)[C@H](CC(C)C)NC(=O)[C@H](Cc1ccccc1)NC(=O)[C@H](CC(N)=O)NC(=O)[C@H](C)NC(=O)[C@H](CC(C)C)NC(=O)[C@H](CCCNC(=N)N)NC(=O)[C@H](CCC(N)=O)NC(=O)[C@@H](NC(=O)[C@H](C)NC(=O)[C@@H]1CSSC[C@H](NC(=O)[C@@H](N)CCCCNC(=O)CC[C@H](NC(=O)CCCCCCCCCCCCCCCCCCC(=O)O)C(=O)O)C(=O)N[C@@H](CC(N)=O)C(=O)N[C@@H]([C@@H](C)O)C(=O)N[C@@H](C)C(=O)N[C@@H]([C@@H](C)O)C(=O)N1)[C@@H](C)O)C(=O)N1CCC[C@H]1C(=O)N[C@@H](CO)C(=O)N[C@@H](CO)C(=O)N[C@H](C(=O)N[C@@H](CC(N)=O)C(=O)N[C@H](C(=O)NCC(=O)N[C@@H](CO)C(=O)N[C@@H](Cc1c[nH]cn1)C(=O)N[C@H](C(=O)N[C@@H](Cc1ccc(O)cc1)C(N)=O)[C@@H](C)O)C(C)C)[C@@H](C)O
notes: Acylated analogue of human amylin; also called compound 60

Biological target: T1, rat amylin receptor (rat calcitonin …)
Experiment: SPA competition vs 125I-rat amylin, membranes with rat CTR + rat RAMP3 (Assay VI)

Row | IC50 | Binder
1 | 0.842 nM | B1
2 | 0.523 nM | B2
3 | 0.42 nM | B3
4 | 0.215 nM | B4

Biological target: T2, rat calcitonin receptor
Experiment: ratio IC50 rat calcitonin receptor / IC50 rat amylin receptor

Row | Ratio rCT/rAmylin binding | Binder
5 | 39.7 | B1
6 | 119 | B2
7 | 42.8 | B3
8 | 122 | B4

Biological target: T2, rat calcitonin receptor
Experiment: SPA competition vs 125I-calcitonin, membranes with rat CTR (Assay VIII)

Row | IC50 | Binder
9 | 33.4 nM | B1
10 | 62 nM | B2
11 | 18 nM | B3
12 | 26.3 nM | B4
